T1: recombinant human interleukin 12 (p40/p35 heterodimer) (human, UniProt P29460 23-328; P29459 23-219)
T1 chain 1: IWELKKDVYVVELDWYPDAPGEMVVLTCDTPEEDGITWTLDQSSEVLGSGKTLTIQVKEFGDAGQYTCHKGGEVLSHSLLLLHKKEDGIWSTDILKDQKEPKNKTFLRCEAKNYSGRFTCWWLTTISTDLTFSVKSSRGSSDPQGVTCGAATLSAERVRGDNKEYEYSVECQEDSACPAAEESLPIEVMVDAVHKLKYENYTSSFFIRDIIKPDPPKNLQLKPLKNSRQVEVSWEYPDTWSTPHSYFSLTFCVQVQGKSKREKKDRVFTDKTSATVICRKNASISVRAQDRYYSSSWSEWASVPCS
T1 chain 2: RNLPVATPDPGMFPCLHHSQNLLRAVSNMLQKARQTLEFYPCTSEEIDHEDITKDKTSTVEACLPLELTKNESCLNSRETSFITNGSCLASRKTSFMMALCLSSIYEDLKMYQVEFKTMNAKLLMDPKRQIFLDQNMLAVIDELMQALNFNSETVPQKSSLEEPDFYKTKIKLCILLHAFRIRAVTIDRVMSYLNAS


Target: T1, recombinant human interleukin 12 …
Assay: BIAcore

| koff | Binder |
| --- | --- |
| 0.0011 s⁻¹ | HGSHRN [Y61 H101 R] |
| 0.00147 s⁻¹ | LGSHDN [Y61 H95 L] |
| 0.00202 s⁻¹ | HGDHDN [Y61 H97 D] |
| 0.00186 s⁻¹ | HTSHDN [Y61 H96 T] |
| 0.000382 s⁻¹ | HVSHDN [Y61 H96 V] |
| 0.000962 s⁻¹ | HRSHDN [Y61 H96 R] |
| 0.00197 s⁻¹ | HWSHDN [Y61 H96 W] |
| 0.00231 s⁻¹ | EGSHDN [Y61 H95 E] |
| 0.00191 s⁻¹ | HGHHDN [Y61 H97 H] |
| 0.000227 s⁻¹ | HGSTDN [Y61 H98 T] |
| 0.000449 s⁻¹ | HGSHSN [Y61 H101 S] |
| 0.0015 s⁻¹ | AGSHDN [Y61 H95 A] |
| 0.00224 s⁻¹ | HDSHDN [Y61 H96 D] |
| 0.00229 s⁻¹ | HGGHDN [Y61 H97 G] |
| 0.00273 s⁻¹ | HGYHDN [Y61 H97 Y] |
| 0.000343 s⁻¹ | HGSIDN [Y61 H98 I] |
| 0.00228 s⁻¹ | KGSHDN [Y61 H95 K] |
| 0.00143 s⁻¹ | HGAHDN [Y61 H97 A] |
| 0.00261 s⁻¹ | HLSHDN [Y61 H96 L] |
| 0.00208 s⁻¹ | HISHDN [Y61 H96 I] |

| koff | Binder |
| --- | --- |
| 0.000237 s⁻¹ | HHSHDN [Y61 H96 H] |
| 0.000588 s⁻¹ | HGTHDN [Y61 H97 T] |
| 0.00471 s⁻¹ | PGSHDN [Y61 H95 P] |
| 0.00221 s⁻¹ | HGNHDN [Y61 H97 N] |
| 0.0018 s⁻¹ | HGFHDN [Y61 H97 F] |
| 0.00514 s⁻¹ | FGSHDN [Y61 H95 F] |
| 0.00193 s⁻¹ | SGSHDN [Y61 H95 S] |
| 0.000293 s⁻¹ | HGSVDN [Y61 H98 V] |
| 0.00129 s⁻¹ | HPSHDN [Y61 H96 P] |
| 0.000598 s⁻¹ | HGSLDN [Y61 H98 L] |
| 0.00202 s⁻¹ | TGSHDN [Y61 H95 T] |
| 0.003 s⁻¹ | HGPHDN [Y61 H97 P] |
| 0.00204 s⁻¹ | HMSHDN [Y61 H96 M] |
| 0.00327 s⁻¹ | HGSHHN [Y61 H101 H] |
| 0.000673 s⁻¹ | HGSADN [Y61 H98 A] |
| 0.00208 s⁻¹ | HGIHDN [Y61 H97 I] |
| 0.00465 s⁻¹ | HGSHYN [Y61 H101 Y] |
| 0.00034 s⁻¹ | HGSRDN [Y61 H98 R] |
| 0.000242 s⁻¹ | HCSHDN [Y61 H96 C] |
| 0.000859 s⁻¹ | QGSHDN [Y61 H95 Q] |

Target: T1, recombinant human interleukin 12 …
Assay: BIAcore
Remark: another data set of the same source

| koff | Binder |
| --- | --- |
| 0.00012 s⁻¹ | FTFSCYGMH [Y61 H31 C] |
| 0.00229 s⁻¹ | FTFSSEGMH [Y61 H32 E] |
| 0.0025 s⁻¹ | FTFSSYYMH [Y61 H33 Y] |
| 0.00383 s⁻¹ | FTFSSCGMH [Y61 H32 C] |
| 0.000716 s⁻¹ | FTFSTYGMH [Y61 H31 T] |
| 0.000245 s⁻¹ | FTFRSYGMH [Y61 H30 R] |
| 0.000664 s⁻¹ | FTFSRYGMH [Y61 H31 R] |
| 0.000319 s⁻¹ | FTFYSYGMH [Y61 H30 Y] |
| 0.00161 s⁻¹ | FTFSSIGMH [Y61 H32 I] |
| 0.00226 s⁻¹ | FTFSSLGMH [Y61 H32 L] |
| 0.00189 s⁻¹ | FTFSSYEMH [Y61 H33 E] |
| 0.000398 s⁻¹ | FTFSYYGMH [Y61 H31 Y] |
| 0.00166 s⁻¹ | FTFSSAGMH [Y61 H32 A] |
| 0.000152 s⁻¹ | FTFSQYGMH [Y61 H31 Q] |
| 0.00191 s⁻¹ | FTFSSYVMH [Y61 H33 V] |
| 0.00297 s⁻¹ | FTFSSNGMH [Y61 H32 N] |
| 0.00148 s⁻¹ | FTFSSTGMH [Y61 H32 T] |

| koff | Binder |
| --- | --- |
| 0.00134 s⁻¹ | FTFSSVGMH [Y61 H32 V] |
| 0.00449 s⁻¹ | FTFSSRGMH [Y61 H32 R] |
| 0.000399 s⁻¹ | FTFSSYSMH [Y61 H33 S] |
| 0.000225 s⁻¹ | FTFKSYGMH [Y61 H30 K] |
| 0.000228 s⁻¹ | FTFESYGMH [Y61 H30 E] |
| 0.000309 s⁻¹ | FTFSHYGMH [Y61 H31 H] |
| 0.000215 s⁻¹ | FTFSSYMMH [Y61 H33 M] |
| 0.00286 s⁻¹ | FTFSSYCMH [Y61 H33 C] |
| 0.000301 s⁻¹ | FTFNSYGMH [Y61 H30 N] |
| 0.000461 s⁻¹ | FTFSSHGMH [Y61 H32 H] |
| 0.0025 s⁻¹ | FTFSSYIMH [Y61 H33 I] |
| 0.000219 s⁻¹ | FTFSEYGMH [Y61 H31 E] |
| 0.00158 s⁻¹ | FTFSSSGMH [Y61 H32 S] |
| 0.000296 s⁻¹ | FTFHSYGMH [Y61 H30 H] |
| 0.00152 s⁻¹ | FTFSSYDMH [Y61 H33 D] |
| 0.000191 s⁻¹ | FTFSNYGMH [Y61 H31 N] |
| 0.000205 s⁻¹ | FTFSAYGMH [Y61 H31 A] |

From patent US20110123544A1 (published 2011)
